# Laboratory results reported in IntAct's records for PubMed 21317894.
# B1: Complement factor H (Homo sapiens), P08603 (parent)
# chain: MRLLAKIICLMLWAICVAEDCNELPPRRNTEILTGSWSDQTYPEGTQAIYKCRPGYRSLGNVIMVCRKGEWVALNPLRKCQKRPCGHPGDTPFGTFTLTGGNVFEYGVKAVYTCNEGYQLLGEINYRECDTDGWTNDIPICEVVKCLPVTAPENGKIVSSAMEPDREYHFGQAVRFVCNSGYKIEGDEEMHCSDDGFWSKEKPKCVEISCKSPDVINGSPISQKIIYKENERFQYKCNMGYEYSERGDAVCTESGWRPLPSCEEKSCDNPYIPNGDYSPLRIKHRTGDEITYQCRNGFYPATRGNTAKCTSTGWIPAPRCTLKPCDYPDIKHGGLYHENMRRPYFPVAVGKYYSYYCDEHFETPSGSYWDHIHCTQDGWSPAVPCLRKCYFPYLENGYNQNYGRKFVQGKSIDVACHPGYALPKAQTTVTCMENGWSPTPRCIRVKTCSKSSIDIENGFISESQYTYALKEKAKYQCKLGYVTADGETSGSITCGKDGWSAQPTCIKSCDIPVFMNARTKNDFTWFKLNDTLDYECHDGYESNTGSTTGSIVCGYNGWSDLPICYERECELPKIDVHLVPDRKKDQYKVGEVLKFSCKPGFTIVGPNSVQCYHFGLSPDLPICKEQVQSCGPPPELLNGNVKEKTKEEYGHSEVVEYYCNPRFLMKGPNKIQCVDGEWTTLPVCIVEESTCGDIPELEHGWAQLSSPPYYYGDSVEFNCSESFTMIGHRSITCIHGVWTQLPQCVAIDKLKKCKSSNLIILEEHLKNKKEFDHNSNIRYRCRGKEGWIHTVCINGRWDPEVNCSMAQIQLCPPPPQIPNSHNMTTTLNYRDGEKVSVLCQENYLIQEGEEITCKDGRWQSIPLCVEKIPCSQPPQIEHGTINSSRSSQESYAHGTKLSYTCEGGFRISEENETTCYMGKWSSPPQCEGLPCKSPPEISHGVVAHMSDSYQYGEEVTYKCFEGFGIDGPAIAKCLGEKWSHPPSCIKTDCLSLPSFENAIPMGEKKDVYKAGEQVTYTCATYYKMDGASNVTCINSRWTGRPTCRDTSCVNPPTVQNAYIVSRQMSKYPSGERVRYQCRSPYEMFGDEEVMCLNGNWTEPPQCKDSTGKCGPPPPIDNGDITSFPLSVYAPASSVEYQCQNLYQLEGNKRITCRNGQWSEPPKCLHPCVISREIMENYNIALRWTAKQKLYSRTGESVEFVCKRGYRLSSRSHTLRTTCWDGKLEYPTCAKR
# Variants of: B1
# Settings: with co3_human C3, P01024
# co3_human C3, P01024, sequence (P01024 whole entry): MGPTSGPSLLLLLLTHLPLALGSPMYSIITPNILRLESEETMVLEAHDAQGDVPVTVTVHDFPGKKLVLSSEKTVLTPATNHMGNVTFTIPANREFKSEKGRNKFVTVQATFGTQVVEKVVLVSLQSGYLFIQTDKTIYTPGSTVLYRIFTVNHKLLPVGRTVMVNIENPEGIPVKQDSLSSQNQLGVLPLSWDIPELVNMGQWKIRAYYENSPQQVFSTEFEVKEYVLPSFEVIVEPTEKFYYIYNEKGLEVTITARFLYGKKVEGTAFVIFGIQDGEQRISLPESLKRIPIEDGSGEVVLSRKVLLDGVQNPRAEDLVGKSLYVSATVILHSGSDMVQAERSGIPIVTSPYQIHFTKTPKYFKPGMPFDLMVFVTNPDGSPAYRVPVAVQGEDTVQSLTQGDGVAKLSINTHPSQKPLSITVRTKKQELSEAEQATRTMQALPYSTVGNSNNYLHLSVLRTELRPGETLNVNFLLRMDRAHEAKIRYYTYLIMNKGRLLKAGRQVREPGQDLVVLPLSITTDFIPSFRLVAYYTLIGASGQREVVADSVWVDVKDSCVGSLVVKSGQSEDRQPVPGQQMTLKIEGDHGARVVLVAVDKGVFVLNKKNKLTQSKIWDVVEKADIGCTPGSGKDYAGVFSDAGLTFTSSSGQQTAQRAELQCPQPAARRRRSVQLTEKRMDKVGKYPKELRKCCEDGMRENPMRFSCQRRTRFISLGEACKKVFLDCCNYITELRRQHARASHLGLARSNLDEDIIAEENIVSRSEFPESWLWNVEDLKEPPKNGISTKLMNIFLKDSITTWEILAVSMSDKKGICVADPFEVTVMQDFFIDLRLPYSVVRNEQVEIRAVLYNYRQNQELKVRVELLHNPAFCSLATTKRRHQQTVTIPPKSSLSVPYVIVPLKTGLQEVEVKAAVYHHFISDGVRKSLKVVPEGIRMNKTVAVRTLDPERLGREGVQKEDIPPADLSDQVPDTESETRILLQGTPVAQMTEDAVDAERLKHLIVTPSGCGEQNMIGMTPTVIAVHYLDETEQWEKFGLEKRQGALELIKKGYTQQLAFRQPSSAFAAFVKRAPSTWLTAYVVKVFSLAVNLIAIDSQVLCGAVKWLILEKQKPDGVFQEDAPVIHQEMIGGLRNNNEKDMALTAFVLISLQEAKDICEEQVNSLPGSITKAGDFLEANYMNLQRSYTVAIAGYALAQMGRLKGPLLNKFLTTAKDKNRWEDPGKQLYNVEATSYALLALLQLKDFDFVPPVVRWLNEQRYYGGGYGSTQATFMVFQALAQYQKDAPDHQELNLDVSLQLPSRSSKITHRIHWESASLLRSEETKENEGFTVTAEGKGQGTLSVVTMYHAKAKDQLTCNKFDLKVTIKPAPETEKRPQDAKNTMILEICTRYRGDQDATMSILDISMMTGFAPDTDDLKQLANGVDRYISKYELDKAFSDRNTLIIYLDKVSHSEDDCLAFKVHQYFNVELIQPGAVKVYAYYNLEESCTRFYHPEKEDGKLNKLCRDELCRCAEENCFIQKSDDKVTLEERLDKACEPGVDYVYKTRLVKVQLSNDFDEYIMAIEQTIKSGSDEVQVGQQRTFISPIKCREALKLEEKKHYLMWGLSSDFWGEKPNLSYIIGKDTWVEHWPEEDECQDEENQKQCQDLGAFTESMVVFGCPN
row,effect of a mutation on the interaction,Variant
1,decreasing interaction,R1215Q
2,decreasing interaction,R1182S

# The remaining lines, values behind:
row,Variant,effect of a mutation on the interaction
1,D1119G,disrupting interaction
2,R1203S,decreasing interaction
